Reference: patent US20230414780A1 (VECT HORUS, published 2023)

Legend:
[1] = target: T1, rhesus monkey transferrin receptor (rhTfR) fused to EGFP, on CHO cells (rhesus monkey); assay: apparent Kd, flow cytometry, CHO cells
T1 construct: whole, on cells; also called rhesus monkey TfR
Method in brief: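 CHO cells expressing TfR-EGFP fusions, blocked in PBS/BSA 2%, then incubated with increasing VHH concentrations for 1 hr at 4° C. Bound VHH detected via anti-6His antibody and Alexa647 secondary, cells PFA-fixed, read by flow cytometry. Apparent Kd from nonlinear fit.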

[2] = target: T2, human transferrin receptor (hTfR) fused to EGFP, on CHO cells (human, UniProt P02786 1-760); assay: flow cytometry on CHO-hTfR-EGFP cells, 1 hr at 4 C, anti-6His + Alexa647 anti-mouse; nonlinear fit
T2 construct: whole, on cells; also called human TfR; CHO-hTfR-EGFP; not shown: EGFP from pEGFP-C1 vector, fused to the N-terminal (intracellular) end of hTfR
Experimental: CHO-hTfR-EGFP cells were incubated 1 hr at 4° C. with various concentrations of the indicated compounds. Detection of VHHs was performed using a primary mouse anti-6His (1/1000) and an Alexa647-conjugated anti-mouse secondary antibody (1/400). Measurements of cell-surface signal associated with VHH were performed using flow cytometry. The results are expressed as the ratio of Alexa647-associated fluorescence intensity of test compounds to that of background fluorescence.

[3] = target: T2, human transferrin receptor (hTfR) fused …; assay: competition flow cytometry on CHO-hTfR-EGFP cells, 4 C; VHH competitor in dilution series, phage-C5 tracer at EC80, anti-M13-A647
Experimental: FIGS. 17A-17D: Competition assays between VHHs and phage-VHHs. CHO-hTfR-EGFP cells were incubated 1 hr at 4° C. with VHHs (competitors) at increasing concentrations. Phage-VHHs (tracers) were then added at EC80 and incubated for 1 more hr. Phage-VHHs were detected with an anti-M13-A647 antibody (1/200). Fluorescence levels were assessed using flow cytometry. The ratio of fluorescence intensity for each point was normalized with the corresponding EGFP signal (receptor expression) and gave rise to the arbitrary unit. Data are presented as mean±SEM of independent experiments.
To evaluate whether selected VHHs compete one with the other for binding to the TfR receptor, competition assays using flow cytometry experiments were performed. All experiments were performed in 96 well plates using 2×10⁵ cells/well, at 4° C. with shaking. CHO cell line expressing the hTfR fused to EGFP was saturated with PBS/BSA 2% solution during 30 min to avoid nonspecific binding, followed by incubation with VHH (competitors) at increasing concentrations for 1 hr. Then, phage-VHHs (tracers) at EC80 were added and incubated 1 hr more. To detect the phage-VHHs, cells were washed twice with PBS/BSA 2% and incubated for 1 hr with an Alexa647-conjugated anti-M13 antibody. […] Fluorescence levels were assessed using an Attune NxT flow cytometer (Thermo Fisher Scientific). […]

[4] = target: T2, human transferrin receptor (hTfR) fused …; assay: flow cytometry on CHO-hTfR-EGFP cells, 1 hr at 4 C, anti-6His + Alexa647 anti-mouse; ratio to background fluorescence
[5] = target: T3, rhesus monkey TfR ectodomain fused to a mouse IgG1 Fc fragment (rhesus monkey, UniProt I0FKY7 89-760); assay: SPR, at equilibrium
T3 construct: extracellular domain; not shown: mouse IgG1 Fc fragment
Method in brief: (§1)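 TfR–mouse Fc fusions, produced in-house, captured on HC 1500M or CM5 chips either directly or via immobilized anti-mouse IgG. VHHs injected in single-cycle or multiple-cycle kinetic mode on Biacore T200.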

[6] = target: T4, mouse TfR ectodomain fused to a mouse IgG1 Fc fragment (mouse, UniProt Q62351 89-763); assay: SPR, at equilibrium
T4 construct: extracellular domain; not shown: mouse IgG1 Fc fragment
Method in brief: as §1

T2 sequence (P02786 whole entry, the tested form may be a part): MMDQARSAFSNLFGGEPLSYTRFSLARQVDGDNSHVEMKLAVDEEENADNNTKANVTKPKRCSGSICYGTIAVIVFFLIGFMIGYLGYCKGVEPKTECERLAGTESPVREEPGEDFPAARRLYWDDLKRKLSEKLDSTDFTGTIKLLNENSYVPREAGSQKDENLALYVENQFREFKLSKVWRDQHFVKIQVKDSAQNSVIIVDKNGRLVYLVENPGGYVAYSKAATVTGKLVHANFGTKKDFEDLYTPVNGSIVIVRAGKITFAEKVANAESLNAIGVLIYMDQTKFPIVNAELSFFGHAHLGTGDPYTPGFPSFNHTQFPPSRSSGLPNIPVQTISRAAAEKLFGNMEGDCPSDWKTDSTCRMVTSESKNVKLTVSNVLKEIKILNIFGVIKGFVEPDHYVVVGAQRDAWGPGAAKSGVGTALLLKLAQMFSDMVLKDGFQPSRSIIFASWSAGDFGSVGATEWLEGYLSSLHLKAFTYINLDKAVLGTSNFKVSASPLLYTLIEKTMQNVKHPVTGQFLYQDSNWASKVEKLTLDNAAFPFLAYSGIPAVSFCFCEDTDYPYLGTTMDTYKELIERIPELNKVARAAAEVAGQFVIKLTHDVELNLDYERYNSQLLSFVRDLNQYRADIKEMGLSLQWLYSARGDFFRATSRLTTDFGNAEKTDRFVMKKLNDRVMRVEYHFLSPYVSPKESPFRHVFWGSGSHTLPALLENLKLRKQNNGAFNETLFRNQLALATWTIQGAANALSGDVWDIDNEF
T4 sequence (Q62351 89-763): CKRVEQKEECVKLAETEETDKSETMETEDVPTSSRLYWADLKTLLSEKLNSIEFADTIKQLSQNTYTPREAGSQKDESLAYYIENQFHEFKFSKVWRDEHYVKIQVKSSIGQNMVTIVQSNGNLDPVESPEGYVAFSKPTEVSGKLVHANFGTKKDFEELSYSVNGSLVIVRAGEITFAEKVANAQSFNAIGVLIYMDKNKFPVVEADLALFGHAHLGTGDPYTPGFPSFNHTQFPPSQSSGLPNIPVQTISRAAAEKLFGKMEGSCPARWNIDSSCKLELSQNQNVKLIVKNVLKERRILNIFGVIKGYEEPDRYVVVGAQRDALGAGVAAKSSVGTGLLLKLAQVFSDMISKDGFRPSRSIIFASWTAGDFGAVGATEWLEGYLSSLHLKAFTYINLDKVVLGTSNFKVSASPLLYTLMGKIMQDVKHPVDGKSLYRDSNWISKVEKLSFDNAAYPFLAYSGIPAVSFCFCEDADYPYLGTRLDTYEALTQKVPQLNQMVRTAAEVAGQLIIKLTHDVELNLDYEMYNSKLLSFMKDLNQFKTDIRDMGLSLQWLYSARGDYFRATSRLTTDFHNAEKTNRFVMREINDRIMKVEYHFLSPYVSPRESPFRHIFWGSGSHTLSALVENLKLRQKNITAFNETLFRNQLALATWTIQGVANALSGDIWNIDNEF

Kd [1]: 4.9 nM
Kd [2]: 5.15 nM
IC50 (read off the curve) [3]: ~50 nM
EC50 (read off the curve) [4]: ~5 nM
Kd [5]: 13.1 nM
Kd [6]: 88.2 nM
B1: VHH A (C5) (VHH)
VHH: EVQLVESGGGVVQPGGSLKLSCVASGTDFSINFIRWYRQAPGKQREFVAGFTATGNTNYADSMKGRFTISRDNTKNAVYLQIDSLKPEDTAVYYCYMLDKWGQGTQVTVSS
notes: form with the C-terminal myc-His6 tag (x = 1), since the VHHs were detected with anti-6His or anti-cMyc; the same holds for m12 to m126
